Measurements from US20250250357A1 (NANJING ZAIMING PHARMACEUTICAL, published 2025).
Where a chain is given by its changes, count along the chain named.

B1: S009-F1.57.1 (antibody, human IgG1, kappa, V domains shown)
VH: EAQLQQSGAVFVKPGASVKLSCTASGFSSKDIFLHWVKQRPEQGLEWIGRIDPASDNTIYDPKFQDRATITSDRSSNTAYLQFSSLTSEDTAVYFCLYFDFWGQGTTLTVSS
VL: DIVMTQATPSISVTPGESVSISCRSSESLLHSNGNTYLYWFLQRPGQSPQLLIYRMSNLASGVPDRFSVSGSGTAFTLRISRVEAEDVGVYYCMQHLEYPLTFGAGTKLELKR
notes: human-murine chimeric antibody, human IgG1/kappa constant regions
B2: S009-F1.62.9 (antibody, human IgG1, kappa, V domains shown)
VH: EVQLQQSGADLVKPGASVKLSCTVFGLNFKDTFMHWVRQRPEQGLEWIGRIDPANDNSIYGPKFQDKATITADTSSNTAYLHLSSLTSEDTAVYYCLYFDNWGHGTTLTVSS
VL: B1 VL with T8A, P9S, I11E, S12P, S26D, E27K, N35H, T36N, Q50H, V69G
notes: as for B1
B3: S009-F1.59.1 (antibody, human IgG1, kappa, V domains shown)
VH: EVKLEGSGGGLVQPGGSMMLSCVATGFTFSSYWMNWVRQSPDRGLEWVAEIRLKSNGFAAFYAESVKGRFTISRDDSKSSVYLQMNNLRTEDTGIYYCTYFVHWGQGILVTVSE
VL: DIVLTQSPTSLAVSLGQRATISCRTSESVEYFGTILIQWYQQKPGQPPKLLIFGASNVESGVPARFSGSGSGTDFSLNIHPVEEEDIAMYFCQQNRKVPYTFGGGTTLELKR
notes: as for B1
B4: S009-F1.25.10 (antibody, human IgG1, kappa, V domains shown)
VH: EVQLQQSGPELVKPGASLKISCKASGYSFTDYTMNWVKQSHGKNLEWIGLFNPYNGGISYNQKFKGKATLTVDKSSNTAYMELLSLTSDDSAVYFCARDGRGGFYAMDYWGQGTSVTVSS
VL: DIQMTQTTSSLSASLGDRVTISCRASQDISIYLNWYQQKPDGPVKLLIYYTSRLHSGVPSRFSGSGSGTDFSLTISNLEQEDIATYFCQQGYTLPPWTFGGGTKLEIKR
notes: as for B1
B5: S009-F1.2.12 (antibody, human IgG1, kappa, V domains shown)
VH: QVQLKQTGPGLVQPSQSLSITCTVSGFSLTNYAVHWVRQSPGKGLEWLGVIWSGGATDYNTVFISRLSISKDNSKSQVFFKVNSLQVDDTAIYYCARTGSGYAMDYWGQGTSVTVSS
VL: DIVLTQSPATLSVTPGDRVSLSCRTSHNVNTYLHWYQQKSHESPRLLIKYASQSISEIPSRFSGSGSGTNFTLSINSVETEDFGMYFCHQTNRWPLTFGAGTKLELKR
notes: as for B1
B6: S009-F2.47.1 (antibody, human IgG1, kappa, V domains shown)
VH: QVQLQQPGAELVKPGASVKLSCKASGYTFTSYWMHWVKQRPGQGLEWIGMIHPNSGSTNYNEKFKSKATLTVDKSSSTAYMQLSSLTSEDSAVYYCARPVVPYWYFDVWGTGTTVTVSS
VL: DIVMTQSQKFMSTTVGDRVSITCKASQNVGTAVAWYQQKPGQSPKLLIYSASNRYTGVPDRFTGSGSGTDFTLTISNMQSEDLADYFCQQSSSYPLTFGAGTKLELKR
notes: as for B1
B7: S009-F2.23.12 (antibody, human IgG1, kappa, V domains shown)
VH: QVQLQQPGTELVKPGASVKLSCKASGYTFTNYWMHWVKQRPGQGLEWIGNINPSNGGPYYNERFRSKATLTVDKSSSTAYMQLSSLTSEDSAVYYCARPYYGSSYGYFDYWGQGTTLTVSS
VL: DIQMTQSPSSLSASLGGKVTITCKASQDINKYIAWYQHKPGKGPRLLIHYTSELQPGIPSRFSGNGSGRDYSFSISNLEPEDIATYYCLQYANPLRTFGGGTKLEIKR
notes: as for B1
B8: S009-F2.16.10 (antibody, human IgG1, kappa, V domains shown)
VH: QVQLQQPGAELIKPGASVKLSCKASGYTFTSYWMHWVKQRPGQGLEWIGIIHPNIGSTNYNERFKSKATLTVDKSSSTAYMQLSSLTSEDSAVYYCARRSSNYGDWYFDVWGTGTTVTVSS
VL: DIVMTQSHRFMSTSVGDRVSITCKASQDVGTSVAWYQQKPGQSPKLLIYWASTQHTGVPDRFTGSGSGTDFTLTINNVQSEDLLDYFCQQYSSYPLTFGAGTKLELKR
notes: as for B1

target: T1, human MSLN protein endogenously expressed on OVCAR3 tumor cells (human, UniProt Q13421 296-598); experiment: FACS on OVCAR3 cells
T1 construct: whole, on cells; Endogenous target on OVCAR3 cells; kept apart from the recombinant full-length construct; also called mesothelin
T1 sequence (Q13421 other isoform, or with tags, fused parts or gaps): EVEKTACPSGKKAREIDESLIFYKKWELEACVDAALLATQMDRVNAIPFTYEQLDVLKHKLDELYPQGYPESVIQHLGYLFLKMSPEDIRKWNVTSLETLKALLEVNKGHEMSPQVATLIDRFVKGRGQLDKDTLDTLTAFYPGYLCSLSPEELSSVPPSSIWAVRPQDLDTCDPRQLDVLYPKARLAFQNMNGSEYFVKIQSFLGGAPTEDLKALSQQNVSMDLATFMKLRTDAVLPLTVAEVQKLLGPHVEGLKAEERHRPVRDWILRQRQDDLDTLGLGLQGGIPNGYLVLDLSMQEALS
Method: (§1) The desired cells were expanded to the logarithmic growth phase in a T-75 cell culture flask. […] After the cells from the previous step were subjected to cell counting, the cell pellet was resuspended to 2×10⁶ cells/mL in a blocking buffer of [PBS+2% (w/w) BSA] and added into a 96-well FACS reaction plate at 50 μL/well. A chimeric antibody (a sample to be tested) was added at 50 μL/well, and the plate was incubated on ice for 2 h. […] After the plate was centrifuged and washed 5 times with a PBST buffer, assay and analysis were performed by FACS (FACS CantoII, purchased from BD). Data analysis was performed by software (Flowjo) to obtain the mean fluorescence intensity (MFI) of the cells.

| Maximum mean fluorescence intensity | Binder |
| --- | --- |
| 948 | B1 |
| 425 | B2 |
| 445 | B3 |
| 429 | B4 |

target: T2, human MSLN full-length protein (NCBI: AAH09272.1) expressed on HEK293T-hMSLN-B8 cells (human, UniProt Q13421 296-598); experiment: FACS on HEK293T-hMSLN-B8 cells
T2 construct: Whole encoded precursor
T2 sequence (Q13421 other isoform, or with tags, fused parts or gaps limits assumed): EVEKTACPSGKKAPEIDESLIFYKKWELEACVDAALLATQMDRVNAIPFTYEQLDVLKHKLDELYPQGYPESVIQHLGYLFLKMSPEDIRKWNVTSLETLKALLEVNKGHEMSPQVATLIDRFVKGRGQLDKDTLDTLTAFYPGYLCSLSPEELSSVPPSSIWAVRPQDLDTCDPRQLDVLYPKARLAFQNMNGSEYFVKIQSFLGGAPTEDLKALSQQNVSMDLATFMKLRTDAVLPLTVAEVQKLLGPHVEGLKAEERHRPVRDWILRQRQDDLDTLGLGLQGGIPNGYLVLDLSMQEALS
Method: as §1

| Maximum mean fluorescence intensity | Binder |
| --- | --- |
| 8750 | B1 |
| 9550 | B2 |
| 32800 | B3 |
| 41900 | B4 |

target: T3, human MSLN-R3 protein (Met487-Ser606 of NCBI AAH09272.1) expressed on HEK293T-hMSLN-R3 cells (human, UniProt Q13421 487-606); experiment: FACS on HEK293T-hMSLN-R3 cells
T3 construct: also called Region3
T3 sequence (Q13421 495-614): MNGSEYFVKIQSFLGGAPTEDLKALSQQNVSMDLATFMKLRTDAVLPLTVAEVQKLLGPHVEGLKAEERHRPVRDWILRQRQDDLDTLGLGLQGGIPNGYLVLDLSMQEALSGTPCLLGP
Method: as §1

| EC50 | Maximum mean fluorescence intensity | Binder |
| --- | --- | --- |
| 3.9 nM | 6660 | B1 |
| 0.95 nM | 6930 | B2 |
| 0.31 nM | 7070 | B3 |
| 1.44 nM | 6260 | B4 |

target: T4, human MSLN-FL-his protein (human, UniProt Q13421 296-580); experiment: competitive ELISA; row F1.2.12; also: test concentration or dose not given here
T4 construct: made in HEK293E cells, purified on nickel column; also called hMSLN-FL-his; human MSLN full-length protein; not shown: His tag
T4 sequence (Q13421 other isoform, or with tags, fused parts or gaps): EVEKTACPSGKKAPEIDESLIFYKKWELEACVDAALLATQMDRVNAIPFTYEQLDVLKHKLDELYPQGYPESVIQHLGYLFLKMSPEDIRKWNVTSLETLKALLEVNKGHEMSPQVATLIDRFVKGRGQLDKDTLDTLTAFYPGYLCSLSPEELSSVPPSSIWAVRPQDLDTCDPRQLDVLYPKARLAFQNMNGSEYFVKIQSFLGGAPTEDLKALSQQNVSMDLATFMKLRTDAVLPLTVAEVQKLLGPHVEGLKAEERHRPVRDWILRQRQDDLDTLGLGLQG

| competition rate | Binder |
| --- | --- |
| 63% | B5 |
| -484% | B6 |
| -70% | B7 |
| -401% | B8 |

target: T4, human MSLN-FL-his protein; experiment: competitive ELISA; row F1.56.1; also: test concentration or dose not given here

| competition rate | Binder |
| --- | --- |
| 74% | B5 |
| -324% | B6 |
| 24% | B7 |
| -401% | B8 |

target: T4, human MSLN-FL-his protein; experiment: competitive ELISA; row F2.13.3; also: test concentration or dose not given here

| competition rate | Binder |
| --- | --- |
| 54% | B5 |
| -975% | B6 |
| -1080% | B7 |
| -740% | B8 |

target: T4, human MSLN-FL-his protein; experiment: competitive ELISA; row F2.17.3
Method: In order to identify antigen-binding sites of antibodies, MSLN chimeric antibodies were grouped using competitive ELISA.
The chimeric antibodies were diluted to 2 μg/mL with PBS and allowed to coat 96-well high-adsorption ELISA plates at 50 μL/well. After the plates were coated at 4° C. overnight, 250 μL of a blocking buffer (PBS containing 2% (w/w) BSA) was added for two hours of blocking at room temperature. 40 μg/mL of the antibodies to be tested were added, and then the human MSLN-FL-His protein with an EC₈₀ concentration corresponding to each of the antibodies to be tested was added for incubation for 2 h. The plates were washed 5 times with PBS, an HRP-labeled anti-His secondary antibody (purchased from Genescript, Cat. No. A00612) was then added for incubation for 1 h, and the plates were washed 5 times again. A TMB substrate was added at 50 μL/well, and after 10 minutes of incubation at room temperature, a stop solution (1.0 M HCl) was added at 50 μL/well. OD₄₅₀ nm values were read using an ELISA plate reader (Insight, purchased from PerkinElmer), and the competition rate between the antibodies was calculated according to the OD₄₅₀ nm values using a formula.

| competition rate | Binder |
| --- | --- |
| -31% | B5 |
| -88% | B6 |
| 90% | B7 |
| -34% | B8 |

target: T4, human MSLN-FL-his protein; experiment: competitive ELISA; row F2.39.3; also: test concentration or dose not given here

| competition rate | Binder |
| --- | --- |
| 2% | B5 |
| 23% | B6 |
| 97% | B7 |
| 31% | B8 |

target: T4, human MSLN-FL-his protein; experiment: competitive ELISA; row F2.58.8; also: test concentration or dose not given here

| competition rate | Binder |
| --- | --- |
| 32% | B5 |
| 31% | B6 |
| 69% | B7 |
| 18% | B8 |

target: T4, human MSLN-FL-his protein; experiment: competitive ELISA; row F1.35.24; also: test concentration or dose not given here

| competition rate | Binder |
| --- | --- |
| 4% | B5 |
| -12% | B6 |
| 61% | B7 |
| -18% | B8 |

target: T4, human MSLN-FL-his protein; experiment: competitive ELISA; row F2.16.10; also: test concentration or dose not given here

| competition rate | Binder |
| --- | --- |
| -81% | B5 |
| 88% | B6 |
| -42% | B7 |
| 103% | B8 |

target: T4, human MSLN-FL-his protein; experiment: competitive ELISA; row F2.24.10; also: test concentration or dose not given here

| competition rate | Binder |
| --- | --- |
| -17% | B5 |
| 56% | B6 |
| 2% | B7 |
| 88% | B8 |

target: T4, human MSLN-FL-his protein; experiment: competitive ELISA; row Tab108 (R3); also: test concentration or dose not given here

| competition rate | Binder |
| --- | --- |
| -29% | B5 |
| -158% | B6 |
| 85% | B7 |
| -156% | B8 |

target: T4, human MSLN-FL-his protein; experiment: competitive ELISA; row Tab142 (R1); also: test concentration or dose not given here

| competition rate | Binder |
| --- | --- |
| -5% | B5 |
| 82% | B6 |
| 23% | B7 |
| 98% | B8 |

target: T4, human MSLN-FL-his protein; experiment: SPR (Biacore), antibody captured on Protein A chip;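 also: measured at 25 °C, analyte injected 240 s in five twofold dilutions from 200 nM, dissociation up to 600 s, double-referenced, fitted with Langmuir 1:1 model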

| Kd | koff | kon | Binder |
| --- | --- | --- | --- |
| 15.8 nM | 0.00143 s⁻¹ | 90600 M⁻¹ s⁻¹ | B5 |
| 5.13 nM | 0.0103 s⁻¹ | 2.01e+06 M⁻¹ s⁻¹ | B6 |
| 8.71 nM | 0.000714 s⁻¹ | 81900 M⁻¹ s⁻¹ | B7 |
| 1.51 nM | 0.00164 s⁻¹ | 1.09e+06 M⁻¹ s⁻¹ | B8 |

target: T4, human MSLN-FL-his protein; experiment: competitive ELISA; row Tab107 (conformation); also: test concentration or dose not given here

| competition rate | Binder |
| --- | --- |
| 29% | B5 |
| -42% | B6 |
| 3% | B7 |
| -51% | B8 |
